The record followed here is FireProtDB (doi:10.1021/bi9929958).

One may read the Tm as the temperature at the midpoint of the melting transition.

The conditions of the data set: Homo sapiens; pH 7.8; Thermal; DSC; Potassium phosphate 20 mM; reversible: yes; whole UniProt chain shown.

B1: Superoxide dismutase [Mn], mitochondrial wild type, P04179 (protein)
chain: MLSRAVCGTSRQLAPVLGYLGSRQKHSLPDLPYDYGALEPHINAQIMQLHHSKHHAAYVNNLNVTEEKYQEALAKGDVTAQIALQPALKFNGGGHINHSIFWTNLSPNGGGEPKGELLEAIKRDFGSFDKFKEKLTAASVGVQGSGWGWLGFNKERGHLQIAACPNQDPLQGTTGLIPLLGIDVWEHAYYLQYKNVRPDYLKAIWNVINWENVTERYMACKK
As to B1, the Tm came out at 88.9 °C.
